In test [1] the target is FUS^WT released from GST-TEV-FUS by TEV protease (UniProt P35637).
For test [2] the target is unchanged. This is another data set of the same source.
Test [3] addresses FUS released from 6xHis-MBP-FUS by TEV protease (UniProt P35637).

For the substance “Kapβ2 H1-H13 (residues 1–604) (from UniProt Q92973-2 1-604) (domain or fragment)”, the FUS fibrillization left (normalised turbidity at 395 nm; 3 μM FUS, TEV protease) at the highest concentration of H1-H13 tested in test [1] worked out at 40%. Also, the reduction of turbidity of preformed FUS fibrils after 80 min at the highest concentration of H1-H13 tested in test [2] is 50%. The reduction of number and total area of preformed FUS:RNA droplets (1 μM FUS, 1 μM U40 RNA; 0.75 μM H1-H13, 2 h) in test [3] was 44%.

As for “Karyopherin-β2 (Kapβ2), full-length, wild type (from UniProt Q92973-2 1-890) (natural protein)”, in test [3], the reduction of number and total area of preformed FUS:RNA droplets (1 μM FUS, 1 μM U40 RNA; 0.75 μM Kapβ2, 2 h) was 100%.

Source of the values: PMC9860449.
